One may read the Kd as the concentration at which binding is half-saturated.

The target in assay [1] is T1, human complement C2 (human, UniProt P06681 21-752).
T1 sequence: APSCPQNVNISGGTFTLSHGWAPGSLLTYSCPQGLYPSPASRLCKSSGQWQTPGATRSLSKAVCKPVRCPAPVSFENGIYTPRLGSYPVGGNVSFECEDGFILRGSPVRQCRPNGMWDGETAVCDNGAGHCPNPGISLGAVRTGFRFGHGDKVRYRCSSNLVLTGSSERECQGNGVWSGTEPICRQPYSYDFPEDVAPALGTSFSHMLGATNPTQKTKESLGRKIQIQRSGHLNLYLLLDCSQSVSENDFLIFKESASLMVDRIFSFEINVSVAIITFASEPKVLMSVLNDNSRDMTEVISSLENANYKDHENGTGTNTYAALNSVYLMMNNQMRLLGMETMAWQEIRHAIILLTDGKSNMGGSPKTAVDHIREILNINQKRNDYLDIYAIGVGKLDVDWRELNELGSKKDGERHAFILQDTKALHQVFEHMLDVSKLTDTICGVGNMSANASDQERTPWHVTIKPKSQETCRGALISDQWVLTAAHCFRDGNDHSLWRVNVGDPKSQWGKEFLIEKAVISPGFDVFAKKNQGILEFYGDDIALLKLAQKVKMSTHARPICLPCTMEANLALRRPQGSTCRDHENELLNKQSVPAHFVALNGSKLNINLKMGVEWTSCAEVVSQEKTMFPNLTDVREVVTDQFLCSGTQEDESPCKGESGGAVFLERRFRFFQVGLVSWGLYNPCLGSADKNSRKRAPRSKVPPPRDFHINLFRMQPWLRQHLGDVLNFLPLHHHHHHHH
Description: cell-based or functional assay.

The target of assay [2] is T2, cynomolgus monkey C2 (cynomolgus monkey, UniProt G8F3W0 21-752).
T2 sequence: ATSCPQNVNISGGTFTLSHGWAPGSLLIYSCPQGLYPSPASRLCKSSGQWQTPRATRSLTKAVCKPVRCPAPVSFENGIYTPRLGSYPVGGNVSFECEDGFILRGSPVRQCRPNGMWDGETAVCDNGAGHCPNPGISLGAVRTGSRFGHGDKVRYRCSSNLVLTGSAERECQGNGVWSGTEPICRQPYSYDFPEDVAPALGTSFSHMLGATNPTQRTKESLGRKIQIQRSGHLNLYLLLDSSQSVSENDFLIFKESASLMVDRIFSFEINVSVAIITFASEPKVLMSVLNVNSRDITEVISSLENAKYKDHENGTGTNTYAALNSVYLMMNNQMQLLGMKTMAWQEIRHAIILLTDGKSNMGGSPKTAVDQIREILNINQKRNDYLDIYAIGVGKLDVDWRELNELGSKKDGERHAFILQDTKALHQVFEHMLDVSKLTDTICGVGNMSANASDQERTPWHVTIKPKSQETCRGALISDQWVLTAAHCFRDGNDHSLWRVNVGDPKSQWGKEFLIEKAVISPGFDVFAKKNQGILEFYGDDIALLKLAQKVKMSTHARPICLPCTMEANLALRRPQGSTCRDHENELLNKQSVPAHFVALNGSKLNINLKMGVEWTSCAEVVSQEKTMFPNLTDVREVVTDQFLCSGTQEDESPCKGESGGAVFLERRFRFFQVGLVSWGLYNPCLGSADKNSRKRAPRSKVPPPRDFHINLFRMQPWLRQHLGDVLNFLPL
The assay can be described thus: cell-based or functional assay.

The target of assay [3] is T1, human complement C2. Description: cell-based or functional assay. This is another data set of the same source.
Assay [4] addresses T2, cynomolgus monkey C2. Description: cell-based or functional assay. This is another data set of the same source.
Assay [5] addresses T2, cynomolgus monkey C2. The assay can be described thus: SPR, mAb captured, cyno C2 analyte, pH 6.0.
Description: (§1) Surface plasmon resonance (SPR, Biacore) was used for all binding affinity analyses. In brief, goat anti-human IgG was directly immobilised onto the carboxymethyl dextran surface of CM5 sensorchips to approximately 12,000 RU using standard NHS/EDC chemistry at pH 5. The immobilised antibody surface was pre-conditioned with ten injections of polyclonal human IgG (Privigen 60 s) prepared at 1 μg/mL. Ligands (anti-C2 mAbs) were captured at the beginning of each cycle as described below. An adjacent spot or flow cell in which only Polyclonal IgG was capture was used as a reference surface. The goat anti-human IgG Fc antibody surface was regenerate in 100 mM H3PO4, injected for 45 seconds at the end of each cycle. Experiments were performed at 37° C. and the flow rate of each experiment was kept constant at 30 μL/min.
(§2) In addition to human C2, the pH dependent anti-C2 antibodies were also tested for their ability to bind to C2 from other mammalian species using the SPR methods described above in order to identify suitable surrogate species for in vivo testing. The antibodies were tested for binding at neutral pH against C2 from cynomolgus monkeys, mice, dogs, rabbits, rats, pigs, and sheep.
Assay [6] addresses T2, cynomolgus monkey C2. Description: SPR, mAb captured, cyno C2 analyte, pH 7.3.
Description: as §1, §2
A further assay deals with T3, mouse C2 (mouse, UniProt P21180 19-760, limits assumed).
T3 sequence (looked up): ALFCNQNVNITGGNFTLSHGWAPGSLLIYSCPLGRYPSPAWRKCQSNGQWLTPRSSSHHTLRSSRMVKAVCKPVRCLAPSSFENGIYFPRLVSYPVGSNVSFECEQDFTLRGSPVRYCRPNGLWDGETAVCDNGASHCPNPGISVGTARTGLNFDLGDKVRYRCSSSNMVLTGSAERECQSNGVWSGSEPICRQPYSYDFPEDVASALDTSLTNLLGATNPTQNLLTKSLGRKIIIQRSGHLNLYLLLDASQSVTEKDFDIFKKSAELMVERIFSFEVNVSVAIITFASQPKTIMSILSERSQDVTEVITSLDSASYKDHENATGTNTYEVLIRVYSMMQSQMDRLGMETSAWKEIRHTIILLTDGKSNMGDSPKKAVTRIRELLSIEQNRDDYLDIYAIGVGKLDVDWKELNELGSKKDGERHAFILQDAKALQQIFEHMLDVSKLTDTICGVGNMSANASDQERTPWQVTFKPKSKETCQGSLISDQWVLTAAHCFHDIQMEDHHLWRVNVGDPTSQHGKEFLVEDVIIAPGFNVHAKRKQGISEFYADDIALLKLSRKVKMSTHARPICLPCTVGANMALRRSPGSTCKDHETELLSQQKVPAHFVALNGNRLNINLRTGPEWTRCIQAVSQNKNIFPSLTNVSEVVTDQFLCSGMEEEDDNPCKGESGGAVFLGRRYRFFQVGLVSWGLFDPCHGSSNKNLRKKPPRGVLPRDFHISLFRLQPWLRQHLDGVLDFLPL
Description: SPR, mAb captured, mouse C2 analyte, pH 7.3. For orientation: Surface plasmon resonance follows binding to a sensor surface in real time, without labels.

For assay [7], the target named is T1, human complement C2. The assay can be described thus: SPR, mAb captured, C2 analyte, HBS-EP, pH 6.0.
Assay [8] addresses T1, human complement C2. Description: SPR, mAb captured, C2 analyte, HBS-EP, pH 7.3.
In assay [9] the target is T1, human complement C2. The assay can be described thus: SPR, mAb captured, huC2 analyte, pH 6.
The target of assay [10] is T1, human complement C2. The assay can be described thus: SPR, mAb captured, huC2 analyte, neutral pH; pH 7.
In a further assay the target is T4, human FcRn/β2m (human, UniProt P55899 24-297; P61769 21-119).
T4 construct: Soluble FcRn/β2m injected as analyte over immobilised antibody; also called neonatal Fc receptor
Description: SPR, antibody immobilised, FcRn/β2m analyte, pH 6.0; pH 6.0.

For assay [11], the target named is T5, cynomolgus monkey FcRn/β2m (cynomolgus monkey, UniProt Q8SPV9 24-297; Q8SPW0 21-119, limits assumed).
T5 construct: injected in solution over immobilised antibody; also called Cyno FcRn/β2m
Description: SPR, immobilised antibody, cyno FcRn/b2m analyte, pH 6.0; pH 6.0.
Description: (§3) Anti-C2 mAbs (1 μg/mL at pH 5) were immobilized on a carboxylmethyldextran (CM5) sensorchip surface using standard EDC/NHS chemistry. Human and Cyno FcRn/β2m (40 μM) were prepared in running buffer (10 mM HEPES, 150 mM NaCl, 10 mM MES adjusted to either pH 6 or pH 7.3) and injected on the immobilized anti-C2 surface at concentrations ranging from 0.078 to 40 μM, prepared in two-fold dilutions in running buffer. Association and dissociation phases were monitored for 180 and 600 seconds, respectively. […] Double referenced sensorgrams were fitted to either a 1:1 kinetic model (pH 6), including a term for mass transport limitation or to a 1:1 steady state model (pH 7.3) where responses at the end of the association phase were plotted against respective concentrations.
(§4) Binding to both human and cynomolgus monkey FcRn was tested using the SPR methods described above.

T4 sequence (P55899 24-297 limits assumed, chain 1 of 2): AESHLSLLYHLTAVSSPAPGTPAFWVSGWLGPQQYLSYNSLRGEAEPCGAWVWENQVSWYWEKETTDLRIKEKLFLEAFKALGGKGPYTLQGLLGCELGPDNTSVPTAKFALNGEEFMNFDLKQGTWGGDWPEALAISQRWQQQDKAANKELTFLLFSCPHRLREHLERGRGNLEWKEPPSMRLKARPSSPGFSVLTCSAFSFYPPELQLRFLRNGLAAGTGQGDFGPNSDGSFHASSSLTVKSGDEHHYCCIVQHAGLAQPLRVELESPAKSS
T4 sequence (P61769 21-119 limits assumed, chain 2 of 2): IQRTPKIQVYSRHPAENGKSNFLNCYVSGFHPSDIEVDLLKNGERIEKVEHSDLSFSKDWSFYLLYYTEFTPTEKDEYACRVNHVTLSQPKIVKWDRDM
T5 sequence (Q8SPV9 24-297 limits assumed, chain 1 of 2): as the sequence (P55899 24-297 limits assumed, chain 1 of 2) above, with N39D, E44Q, G99S, S189G, S190N, L217M, S269T counted along it
T5 sequence (Q8SPW0 21-119 limits assumed, chain 2 of 2): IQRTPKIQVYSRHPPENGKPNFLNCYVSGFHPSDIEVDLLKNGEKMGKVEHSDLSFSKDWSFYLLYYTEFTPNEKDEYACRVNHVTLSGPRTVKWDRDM
Description for human FcRn/β2m: as §3, §4
Description for mouse C2: as §1, §2

B1: RF16-191 (antibody, V domains shown)
VH: EVQLLESGGGLVQPGGSLRLSCAASGFTFSKYWMGWVRQATGKGLEWVSSIYSSGGWTYYADSVKGRFTISRDNSKNTLYLQMNSLRAEDTAVYYCARRPRSFSGSYYRAFDIWGQGTMVTVSS
VL: DIQMTQSPSSLSASVGDRVTITCRASQSITDYLNWYQQRPGKAPKLLIYAASSLQSGVPSRFSGSGSGTDFTLTISGLQPEDFATYYCQQSYSSSITFGQGTRLDLKR
notes: Human antibody from a phage display library
B1: the “IC50, inhibition of human classical complement pathway (Wieslab assay)” value with human complement C2 [1] was determined as 1.09 nM. Besides, the “IC50, inhibition of human lectin complement pathway (Wieslab assay)” value in the assay with human complement C2 [1] was 0.857 nM. For the same molecule, the “IC50, inhibition of cynomolgus classical complement pathway (Wieslab assay)” value with cynomolgus monkey C2 [2] came to 11 nM. The “IC50, inhibition of cynomolgus lectin complement pathway (Wieslab assay)” value with cynomolgus monkey C2 [2] is 49.2 nM. Further, in the assay with human complement C2 [3], the “IC50, inhibition of human classical pathway (hemolysis assay)” value stood at 29.4 nM. Further, in the assay with cynomolgus monkey C2 [4], the “IC50, inhibition of cyno classical pathway (hemolysis assay)” value amounted to 188 nM. Also, the Kd with cynomolgus monkey C2 [5] was 71.3 nM; with cynomolgus monkey C2 [6], 27.4 nM; in the assay with mouse C2, 303 nM; in the assay with human complement C2 [7], 13 nM; in the assay with human complement C2 [8] it was 10.9 nM.

B2: RF16-226 YTE (antibody, human IgG4 S228P, lambda)
heavy: EVQLVQSGAEVKKPGESLKISCKGSGYSFTSYWIGWVRQMPGKGLEWMGIIYPGDSDTRYSPSFQGQVTISADKSISTAYLQWSSLKASDTAMYYCARRFSYSSGWDMWGQGTLVTVSSASTKGPSVFPLAPCSRSTSESTAALGCLVKDYFPEPVTVSWNSGALTSGVHTFPAVLQSSGLYSLSSVVTVPSSSLGTKTYTCNVDHKPSNTKVDKRVESKYGPPCPPCPAPEFLGGPSVFLFPPKPKDTLYITREPEVTCVVVDVSQEDPEVQFNWYVDGVEVHNAKTKPREEQFNSTYRVVSVLTVLHQDWLNGKEYKCKVSNKGLPSSIEKTISKAKGQPREPQVYTLPPSQEEMTKNQVSLTCLVKGFYPSDIAVEWESNGQPENNYKTTPPVLDSDGSFFLYSRLTVDKSRWQEGNVFSCSVMHEALHNHYTQKSLSLSLGK
light: SYELTQPPSVSVSPGQTARITCSGDALTSKYVAWYQQKSGLAPLLVIYEDTRRPSGIPAKFSGSSSGSVATLTISGAHGDDEADYYCYSTDASGHQRVFGGGTKLTVLSQPKAAPSVTLFPPSSEELQANKATLVCLISDFYPGAVTVAWKADGSPVKAGVETTKPSKQSNNKYAASSYLSLTPEQWKSHRSYSCQVTHEGSTVEKTVAPTECS
On to B2, for which the results for the Kd in the assay with human complement C2 [9] and with human complement C2 [10] were around 80 nM and around 9 nM, respectively.

B3: RF16-226 M252Y, S254T, T256E (antibody, human IgG4 S228P, lambda)
heavy: B2 heavy
light: B2 light
As for B3, in the assay with human FcRn/β2m, binding was put at a Kd of 680 nM.

B4: RF16-226 M428L, N434A (antibody, human IgG4 S228P, lambda)
heavy: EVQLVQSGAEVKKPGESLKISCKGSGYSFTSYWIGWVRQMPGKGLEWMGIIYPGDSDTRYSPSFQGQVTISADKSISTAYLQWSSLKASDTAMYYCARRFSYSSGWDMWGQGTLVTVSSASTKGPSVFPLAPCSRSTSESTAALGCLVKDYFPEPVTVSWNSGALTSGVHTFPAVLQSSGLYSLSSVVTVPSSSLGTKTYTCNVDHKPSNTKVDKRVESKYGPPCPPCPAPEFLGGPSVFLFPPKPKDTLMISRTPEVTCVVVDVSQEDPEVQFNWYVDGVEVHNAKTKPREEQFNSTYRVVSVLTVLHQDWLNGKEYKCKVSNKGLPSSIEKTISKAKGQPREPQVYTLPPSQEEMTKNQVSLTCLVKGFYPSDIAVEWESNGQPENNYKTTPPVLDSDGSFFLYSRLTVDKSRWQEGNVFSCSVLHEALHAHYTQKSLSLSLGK
light: B2 light
In the assay with human FcRn/β2m, B4 came in with a dissociation constant (Kd) of 640 nM.

B5: RF16-226 Fc mutant M428L, N434A (antibody, human IgG4 S228P, lambda)
heavy: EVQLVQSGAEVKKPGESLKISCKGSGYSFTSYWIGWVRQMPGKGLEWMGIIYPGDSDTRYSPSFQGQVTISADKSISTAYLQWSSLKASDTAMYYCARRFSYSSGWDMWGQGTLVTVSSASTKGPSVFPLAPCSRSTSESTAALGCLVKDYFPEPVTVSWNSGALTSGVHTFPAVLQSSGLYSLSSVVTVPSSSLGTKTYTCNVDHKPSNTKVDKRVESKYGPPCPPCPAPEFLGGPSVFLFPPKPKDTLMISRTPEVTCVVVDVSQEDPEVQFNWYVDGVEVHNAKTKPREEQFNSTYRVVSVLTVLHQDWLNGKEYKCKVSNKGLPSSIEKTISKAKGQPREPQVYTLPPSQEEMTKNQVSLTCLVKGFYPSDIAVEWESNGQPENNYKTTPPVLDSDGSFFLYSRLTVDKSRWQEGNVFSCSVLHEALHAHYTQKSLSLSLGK
light: B2 light
Regarding B5, in assay [11], binding was put at a Kd of 420 nM.

(Values after patent US20220332804A1 (CSL INNOVATION, published 2022).)
